{"source": "paper PMC9482650", "about": "“Quantitative fragmentomics allow affinity mapping of interactomes” (Nature Communications, 2022)", "test_in_all_cases": "holdup assay", "design_in_all_cases": "key: below the threshold = too weak to quantify, mostly under pKd 3.1 to 4", "details_in_all_cases": "plain residues with an end cap or a label only (N-terminal biotin on a linker: ttds)", "key": {"MPP5, Q8N3R9": {"target": "T1, MPP5, Q8N3R9", "T1 sequence (Q8N3R9 251-346, limits assumed, looked up)": "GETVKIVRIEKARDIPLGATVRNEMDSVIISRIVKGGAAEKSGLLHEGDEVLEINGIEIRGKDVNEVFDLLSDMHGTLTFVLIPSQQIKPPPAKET"}, "NHERF2_1, Q15599": {"target": "NHERF2_1, Q15599", "sequence (Q15599 9-91)": "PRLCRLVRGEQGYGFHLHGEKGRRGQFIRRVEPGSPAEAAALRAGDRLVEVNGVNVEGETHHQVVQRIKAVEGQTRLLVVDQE"}, "USH1C_2, Q9Y6N9": {"target": "T2, USH1C_2, Q9Y6N9", "T2 sequence (Q9Y6N9 206-303, limits assumed, looked up)": "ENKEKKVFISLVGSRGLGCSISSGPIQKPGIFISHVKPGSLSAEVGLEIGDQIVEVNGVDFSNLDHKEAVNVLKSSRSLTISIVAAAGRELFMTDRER"}, "LIN7C, Q9NUP9": {"target": "T3, LIN7C, Q9NUP9", "T3 sequence (Q9NUP9 88-185, limits assumed, looked up)": "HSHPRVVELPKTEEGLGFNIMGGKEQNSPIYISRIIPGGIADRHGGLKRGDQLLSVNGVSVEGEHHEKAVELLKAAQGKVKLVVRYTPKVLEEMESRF"}, "PDZD2_4, O15018": {"target": "T4, PDZD2_4, O15018", "T4 sequence (O15018 723-823, limits assumed, looked up)": "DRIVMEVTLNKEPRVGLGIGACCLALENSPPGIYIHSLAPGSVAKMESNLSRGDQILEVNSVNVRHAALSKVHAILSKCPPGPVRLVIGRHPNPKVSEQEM"}, "MAGI3_4, Q5TCQ9": {"target": "MAGI3_4, Q5TCQ9", "sequence (Q5TCQ9 716-815)": "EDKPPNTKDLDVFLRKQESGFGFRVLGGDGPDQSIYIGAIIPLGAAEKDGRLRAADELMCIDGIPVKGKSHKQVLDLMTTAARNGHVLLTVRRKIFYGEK"}, "DVL2, O14641": {"target": "DVL2, O14641", "sequence (O14641 260-359)": "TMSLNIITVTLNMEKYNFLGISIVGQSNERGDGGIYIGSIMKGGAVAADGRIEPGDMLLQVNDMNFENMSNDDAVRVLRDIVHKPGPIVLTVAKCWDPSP"}, "CNKSR3, Q6P9H4": {"target": "CNKSR3, Q6P9H4", "sequence (Q6P9H4 203-303)": "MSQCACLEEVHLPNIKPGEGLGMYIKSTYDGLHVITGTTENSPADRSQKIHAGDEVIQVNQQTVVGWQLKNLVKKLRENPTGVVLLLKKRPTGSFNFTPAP"}, "MPDZ_7, O75970": {"target": "T5, MPDZ_7, O75970", "T5 sequence (O75970 1146-1253, limits assumed, looked up)": "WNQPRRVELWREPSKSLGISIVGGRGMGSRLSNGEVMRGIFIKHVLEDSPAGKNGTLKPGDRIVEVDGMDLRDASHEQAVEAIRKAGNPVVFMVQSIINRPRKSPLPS"}, "PDZD2_1, O15018": {"target": "T6, PDZD2_1, O15018", "T6 sequence (O15018 80-192, limits assumed, looked up)": "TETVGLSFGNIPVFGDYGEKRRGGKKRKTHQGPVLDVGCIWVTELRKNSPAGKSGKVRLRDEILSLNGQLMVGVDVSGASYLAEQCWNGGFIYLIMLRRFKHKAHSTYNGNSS"}, "Inadl_7, Q8NI35": {"target": "Inadl_7, Q8NI35", "sequence (Q8NI35 1219-1332)": "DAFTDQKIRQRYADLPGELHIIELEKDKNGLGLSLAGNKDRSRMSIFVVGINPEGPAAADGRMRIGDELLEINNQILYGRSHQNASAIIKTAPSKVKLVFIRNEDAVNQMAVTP"}, "DFNB31_2, Q9P202": {"target": "T7, DFNB31_2, Q9P202", "T7 sequence (Q9P202 274-371, limits assumed, looked up)": "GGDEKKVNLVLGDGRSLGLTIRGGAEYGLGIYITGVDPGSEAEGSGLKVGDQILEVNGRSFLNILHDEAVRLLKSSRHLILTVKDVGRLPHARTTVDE"}, "MAGI3_6, Q5TCQ9": {"target": "MAGI3_6, Q5TCQ9", "sequence (Q5TCQ9 1014-1103)": "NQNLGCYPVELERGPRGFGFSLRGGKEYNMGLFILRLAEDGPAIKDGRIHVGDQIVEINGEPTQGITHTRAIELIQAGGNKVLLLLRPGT"}, "PDZD11, Q5EBL8": {"target": "T8, PDZD11, Q5EBL8", "T8 sequence (Q5EBL8 42-139, limits assumed, looked up)": "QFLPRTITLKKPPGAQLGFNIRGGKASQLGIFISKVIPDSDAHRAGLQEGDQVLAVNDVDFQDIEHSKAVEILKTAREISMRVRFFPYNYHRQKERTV"}, "MPDZ_3, O75970": {"target": "T9, MPDZ_3, O75970", "T9 sequence (O75970 372-473, limits assumed, looked up)": "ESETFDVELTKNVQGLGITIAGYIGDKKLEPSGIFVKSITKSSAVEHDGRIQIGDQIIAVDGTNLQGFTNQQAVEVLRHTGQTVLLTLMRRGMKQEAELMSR"}, "SCRIB_4, Q14160": {"target": "SCRIB_4, Q14160", "sequence (Q14160 1095-1204)": "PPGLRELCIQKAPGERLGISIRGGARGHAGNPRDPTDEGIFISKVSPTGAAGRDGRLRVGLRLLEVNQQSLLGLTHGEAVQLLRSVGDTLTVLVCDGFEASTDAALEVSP"}, "TJP1_1, Q07157": {"target": "TJP1_1, Q07157", "sequence (Q07157 18-120)": "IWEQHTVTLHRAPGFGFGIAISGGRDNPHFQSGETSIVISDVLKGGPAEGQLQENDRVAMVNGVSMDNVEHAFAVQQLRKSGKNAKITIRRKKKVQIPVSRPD"}, "PDLIM3, Q53GG5": {"target": "T10, PDLIM3, Q53GG5", "T10 sequence (Q53GG5 1-94, limits assumed, looked up)": "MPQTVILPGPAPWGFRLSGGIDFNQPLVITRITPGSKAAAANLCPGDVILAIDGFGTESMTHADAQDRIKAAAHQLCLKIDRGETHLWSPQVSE"}, "PARD6G, Q9BYG4": {"target": "T11, PARD6G, Q9BYG4", "T11 sequence (Q9BYG4 153-261, limits assumed, looked up)": "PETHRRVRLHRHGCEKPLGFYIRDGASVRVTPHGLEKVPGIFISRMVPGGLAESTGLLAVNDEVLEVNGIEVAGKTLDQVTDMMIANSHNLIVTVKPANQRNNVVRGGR"}, "PDZRN4_2, Q6ZMN7": {"target": "PDZRN4_2, Q6ZMN7", "sequence (Q6ZMN7 389-498)": "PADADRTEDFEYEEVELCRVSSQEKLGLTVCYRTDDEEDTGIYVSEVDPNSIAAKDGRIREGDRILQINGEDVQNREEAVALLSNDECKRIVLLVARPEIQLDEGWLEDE"}, "PTPN13_4, Q12923": {"target": "T12, PTPN13_4, Q12923", "T12 sequence (Q12923 1783-1878, limits assumed, looked up)": "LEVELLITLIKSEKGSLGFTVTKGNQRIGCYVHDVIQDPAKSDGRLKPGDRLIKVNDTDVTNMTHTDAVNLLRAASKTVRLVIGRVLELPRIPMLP"}, "NHERF3_2, Q5T2W1": {"target": "T13, NHERF3_2, Q5T2W1", "T13 sequence (Q5T2W1 129-225, limits assumed, looked up)": "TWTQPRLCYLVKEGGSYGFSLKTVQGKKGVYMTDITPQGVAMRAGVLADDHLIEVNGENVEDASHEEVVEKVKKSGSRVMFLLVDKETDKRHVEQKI"}, "PREX1_1, Q8TCU6": {"target": "PREX1_1, Q8TCU6", "sequence (Q8TCU6 608-718)": "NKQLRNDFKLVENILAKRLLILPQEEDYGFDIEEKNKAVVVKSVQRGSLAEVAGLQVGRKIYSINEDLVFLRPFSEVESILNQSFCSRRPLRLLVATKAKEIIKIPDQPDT"}}, "data": [{"binder": "SGSRPSATVV", "note": "[HPV73-E6, Q82005]", "values": [{"measurement": "pKd", "setting": "MPP5, Q8N3R9", "value": "below the threshold"}, {"measurement": "pKd", "setting": "NHERF2_1, Q15599", "value": "below the threshold"}, {"measurement": "pKd", "setting": "USH1C_2, Q9Y6N9", "value": "below the threshold"}, {"measurement": "pKd", "setting": "LIN7C, Q9NUP9", "value": 3.81}, {"measurement": "pKd", "setting": "PDZD2_4, O15018", "value": 4.26}, {"measurement": "pKd", "setting": "MAGI3_4, Q5TCQ9", "value": "below the threshold"}, {"measurement": "pKd", "setting": "DVL2, O14641", "value": "below the threshold"}, {"measurement": "pKd", "setting": "CNKSR3, Q6P9H4", "value": "below the threshold"}, {"measurement": "pKd", "setting": "MPDZ_7, O75970", "value": "below the threshold"}, {"measurement": "pKd", "setting": "PDZD2_1, O15018", "value": "below the threshold"}, {"measurement": "pKd", "setting": "Inadl_7, Q8NI35", "value": "below the threshold"}, {"measurement": "pKd", "setting": "DFNB31_2, Q9P202", "value": "below the threshold"}, {"measurement": "pKd", "setting": "MAGI3_6, Q5TCQ9", "value": "below the threshold"}, {"measurement": "pKd", "setting": "PDZD11, Q5EBL8", "value": "below the threshold"}, {"measurement": "pKd", "setting": "MPDZ_3, O75970", "value": "below the threshold"}, {"measurement": "pKd", "setting": "SCRIB_4, Q14160", "value": "below the threshold"}, {"measurement": "pKd", "setting": "TJP1_1, Q07157", "value": "below the threshold"}, {"measurement": "pKd", "setting": "PDLIM3, Q53GG5", "value": "below the threshold"}, {"measurement": "pKd", "setting": "PARD6G, Q9BYG4", "value": "below the threshold"}, {"measurement": "pKd", "setting": "PDZRN4_2, Q6ZMN7", "value": "below the threshold"}, {"measurement": "pKd", "setting": "PTPN13_4, Q12923", "value": "below the threshold"}, {"measurement": "pKd", "setting": "NHERF3_2, Q5T2W1", "value": "below the threshold"}, {"measurement": "pKd", "setting": "PREX1_1, Q8TCU6", "value": "below the threshold"}]}]}
